Where no end group is shown, it is not given here. [ ]: non-standard residue; d: D form.
T1: GIP receptor (human, UniProt P48546 22-466)
T1 sequence (looked up): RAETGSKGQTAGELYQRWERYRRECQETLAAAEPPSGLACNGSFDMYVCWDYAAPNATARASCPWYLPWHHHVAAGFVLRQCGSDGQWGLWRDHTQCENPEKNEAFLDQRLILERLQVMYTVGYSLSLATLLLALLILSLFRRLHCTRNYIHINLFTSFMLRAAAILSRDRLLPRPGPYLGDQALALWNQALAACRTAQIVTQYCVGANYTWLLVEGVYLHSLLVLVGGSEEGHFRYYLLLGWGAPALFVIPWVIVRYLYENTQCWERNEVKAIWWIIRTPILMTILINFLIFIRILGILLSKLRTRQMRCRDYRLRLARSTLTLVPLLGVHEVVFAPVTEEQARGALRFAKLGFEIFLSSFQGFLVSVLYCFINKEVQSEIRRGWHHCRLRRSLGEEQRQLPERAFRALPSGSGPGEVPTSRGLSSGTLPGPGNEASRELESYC

B1: (DAla2)GIP/xenin-8-Gln(L-Asp) (peptide)
peptide: Y[dA]EGTFISDYSIAMHPQQPWILGAADDDDDD
B2: (DAla2)GIP/xenin-8-Gln (peptide)
peptide: Y[dA]EGTFISDYSIAMHPQQPWIL
B3: (DAla2)GIP/xenin-8-Gln(L-Glu) (peptide)
peptide: Y[dA]EGTFISDYSIAMHPQQPWILGAAEEEEEE

What follows are binders tested against T1, GIP receptor (assay: cell-based or functional assay).
For B1, the “cAMP production in SaOS-2 cells, lowest effective concentration” value (from here on “cAMP production in SaOS-2 cells”) was 10 nM.
In the case of B2, the “cAMP production in SaOS-2 cells” value is reported as 0.1 nM.
For B3, the “cAMP production in SaOS-2 cells” value was 1000 nM.

From US20210379157A1 (UNIVERSITY OF ULSTER, published 2021)
